In patent US20200332017A1 (SALUBRIS CHENGDU BIOTECH, published 2020):

How the values were obtained:
[1] = biological target: T1, Human CD40-his protein (Acro biosystems, Cat # CD0-H5228) (human, UniProt P25942 21-193); experiment: SPR, Biacore; antibody captured, human CD40-his flowed
T1 construct: Bought reagent; not shown: his tag
Excerpt: Briefly, goat anti-mouse IgG (GE healthcare, Cat # BR100838, Mouse Antibody Capture Kit) was covalently linked to a CM5 or a Protein G chip (carboxy methyl dextran coated chip) via primary amines, using a standard amine coupling kit provided by Biacore (GE healthcare, Pittsburgh, Pa., USA). Un-reacted moieties on the biosensor surface were blocked with ethanolamine. […] Then, human CD40-his (Acro biosystems, Cat # CD0-H5228) or cynomolgus monkey CD40-his protein (Acro biosystems, Cat # CD0-052H6) in HBS EP buffer (provided by Biacore) was flowed onto the chip at a flow rate of 30 μL/min. The antigen-antibody association kinetics was followed for 2 minutes and the dissociation kinetics was followed for 10 minutes. The association and dissociation curves were fit to a 1:1 Langmuir binding model using BIA evaluation software.

[2] = biological target: T2, human CD40-Fc protein (amino acid residue 21-193 of SEQ ID NO: 67 linked to N-terminus of amino acid residue … (human, biotin-labeled in the capture ELISA and in the benchmark blocking ELISA; unlabeled when coated in the ligand blocking ELISA); experiment: capture ELISA, biotin human CD40-Fc; mAb at 16 ng/mL
T2 construct: also called biotin-labeled human CD40-Fc; human CD40-Fc-biotin
Description: (§1) Plates were washed 4 times with wash buffer (PBS+0.05% Tween-20, PBST) and then blocked with 200 μl/well blocking buffer (5% w/v non-fatty milk in PBST) for 2 hours at 37° C. […] After a final wash, plates were incubated with 100 μl/well ELISA substrate TMB (Innoreagents, Cat # TMB-S-002). The reaction was stopped in 15 minutes at 25° C. with 50 μl/well 1M H₂SO₄, and the absorbance was read at 450 nm and plotted against antibody concentration. Data were analyzed using Graphpad Prism software and EC₅₀ values were reported.

[3] = biological target: T2, human CD40-Fc protein (amino acid …); experiment: capture ELISA, biotin human CD40-Fc; mAb at 80 ng/mL
Description: as §1

[4] = biological target: T2, human CD40-Fc protein (amino acid …); experiment: capture ELISA, biotin human CD40-Fc; mAb at 3.2 ng/mL
Description: as §1

[5] = biological target: T2, human CD40-Fc protein (amino acid …); experiment: capture ELISA, biotin human CD40-Fc; mAb at 400 ng/mL
Description: as §1

[6] = biological target: T2, human CD40-Fc protein (amino acid …); experiment: capture ELISA, biotin human CD40-Fc; mAb at 0.64 ng/mL
Description: as §1

[7] = biological target: T2, human CD40-Fc protein (amino acid …); experiment: capture ELISA, biotin human CD40-Fc; mAb at 2000 ng/mL
Description: as §1

[8] = biological target: T2, human CD40-Fc protein (amino acid …); experiment: capture ELISA, biotin human CD40-Fc; mAb at 10000 ng/mL
Description: as §1

[9] = biological target: T2, human CD40-Fc protein (amino acid …); experiment: capture ELISA, biotin human CD40-Fc; mAb at 0 ng/mL (blank)
Description: as §1

[10] = biological target: T2, human CD40-Fc protein (amino acid …); experiment: capture ELISA; antibody captured, biotin-labeled human CD40-Fc in solution
Description: as §1

T2 sequence (chain, as listed by the source): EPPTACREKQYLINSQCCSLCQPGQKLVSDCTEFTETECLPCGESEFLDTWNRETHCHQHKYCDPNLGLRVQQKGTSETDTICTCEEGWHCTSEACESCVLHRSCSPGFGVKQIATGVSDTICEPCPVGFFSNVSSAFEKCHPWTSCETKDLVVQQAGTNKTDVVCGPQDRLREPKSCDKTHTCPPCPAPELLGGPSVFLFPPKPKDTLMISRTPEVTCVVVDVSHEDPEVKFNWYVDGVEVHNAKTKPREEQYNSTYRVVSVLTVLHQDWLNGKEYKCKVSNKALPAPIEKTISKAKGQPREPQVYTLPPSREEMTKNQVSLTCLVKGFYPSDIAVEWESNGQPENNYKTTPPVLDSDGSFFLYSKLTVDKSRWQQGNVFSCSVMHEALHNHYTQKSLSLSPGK
T1 sequence (P25942 21-193 limits assumed): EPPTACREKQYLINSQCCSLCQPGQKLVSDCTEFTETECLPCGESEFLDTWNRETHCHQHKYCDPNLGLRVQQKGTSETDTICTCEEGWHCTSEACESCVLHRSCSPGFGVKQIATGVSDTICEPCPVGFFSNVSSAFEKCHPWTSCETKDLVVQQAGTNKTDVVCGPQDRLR

| Binder | Kd [1] [nM] | koff [1] [s⁻¹] | kon [1] [M⁻¹ s⁻¹] | absorbance at 450 nm [2] [OD450] | absorbance at 450 nm [3] [OD450] | absorbance at 450 nm [4] [OD450] | absorbance at 450 nm [5] [OD450] | absorbance at 450 nm [6] [OD450] | absorbance at 450 nm [7] [OD450] | absorbance at 450 nm [8] [OD450] | absorbance at 450 nm [9] [OD450] | EC50 [10] [ng/mL] |
| --- | --- | --- | --- | --- | --- | --- | --- | --- | --- | --- | --- | --- |
| humanized antibody huC1C1-V6 (antibody, human IgG1, kappa, V domains shown, Human IgG1/kappa) VH: EVQLVESGGGVVQPGRSLRLSCAASGFTFSNYGMSWVRQAPGKGLEWVASISSGGDDTYYPDNVKGRCTISRDNSKNTLYLQMNSLRAEDTAVYYCTRAGGKAMDYWGQGTLVTVSS VL: EIVLTQSPATLSLSPGERATLSCRASQSIRDNLHWYQQKPGQAPRLLIYYASQSISGIPARFSGSGSGTDFTLTISSLEPEDFAVYYCQQFNSWPLTFGQGTKVEIKR | 11.6 | 0.00881 | 763000 | – | – | – | – | – | – | – | – | – |
| humanized antibody huC1C1-V1 (antibody, human IgG1, kappa, V domains shown, Human IgG1/kappa; also called humanized C1C1-V1) VH: EVQLVESGGGVVQPGRSLRLSCAASGFTFSNYGMSWVRQAPGKGLEWVASISSGGDDTYYPDNVKGRCTISRDNSKNTLYLQMNSLRAEDTAVYYCTRAGGKAMDYWGQGTLVTVSS VL: EIVLTQSPATLSLSPGERATLSCRASQSIRDNLHWYQQKPGQSPRLLINYASQSISGIPARFSGSGSGTDFTLTISSLEPEDFAVYFCQQFNSWPLTFGQGTKVEIKR | – | – | – | 0.353 | 1.12 | 0.083 | 1.73 | 0.035 | 1.78 | 1.9 | 0.028 | 0.382 |
| humanized antibody huC1C1-V3 (antibody, human IgG1, kappa, V domains shown, Human IgG1/kappa) VH: EVQLVESGGGVVQPGRSLRLSCAASGFTFSNYGMSWVRQAPGKGLEWVASISSGGDDTYYPDNVKGRCTISRDNSKNTLYLQMNSLRAEDTAVYYCTRAGGKAMDYWGQGTLVTVSS VL: EIVLTQSPATLSLSPGERATLSCRASQSIRDNLHWYQQKPGQAPRLLINYASQSISGIPARFSGSGSGTDFTLTISSLEPEDFAVYFCQQFNSWPLTFGQGTKVEIKR | – | – | – | 0.357 | 1.15 | 0.083 | 1.72 | 0.032 | 1.71 | 1.8 | 0.024 | 0.336 |
| humanized antibody huC1C1-V2 (antibody, human IgG1, kappa, V domains shown, Human IgG1/kappa) VH: EVQLVESGGGVVQPGRSLRLSCAASGFTFSNYGMSWVRQAPGKGLEWVASISSGGDDTYYPDNVKGRFTISRDNSKNTLYLQMNSLRAEDTAVYYCTRAGGKAMDYWGQGTLVTVSS VL: EIVLTQSPATLSLSPGERATLSCRASQSIRDNLHWYQQKPGQSPRLLINYASQSISGIPARFSGSGSGTDFTLTISSLEPEDFAVYFCQQFNSWPLTFGQGTKVEIKR | – | – | – | 0.3 | 1.02 | 0.073 | 1.62 | 0.029 | 1.72 | 1.82 | 0.027 | 0.428 |
| humanized antibody huC1C1-V5 (antibody, human IgG1, kappa, V domains shown, Human IgG1/kappa; also called humanized C1C1-V5) VH: EVQLVESGGGVVQPGRSLRLSCAASGFTFSNYGMSWVRQAPGKGLEWVASISSGGDDTYYPDNVKGRCTISRDNSKNTLYLQMNSLRAEDTAVYYCTRAGGKAMDYWGQGTLVTVSS VL: EIVLTQSPATLSLSPGERATLSCRASQSIRDNLHWYQQKPGQSPRLLINYASQSISGIPARFSGSGSGTDFTLTISSLEPEDFAVYYCQQFNSWPLTFGQGTKVEIKR | – | – | – | 0.34 | 1.1 | 0.083 | 1.66 | 0.033 | 1.68 | 1.77 | 0.027 | 0.355 |
| humanized antibody huC1C1-V4 (antibody, human IgG1, kappa, V domains shown, Human IgG1/kappa) VH: EVQLVESGGGVVQPGRSLRLSCAASGFTFSNYGMSWVRQAPGKGLEWVASISSGGDDTYYPDNVKGRCTISRDNSKNTLYLQMNSLRAEDTAVYYCTRAGGKAMDYWGQGTLVTVSS VL: EIVLTQSPATLSLSPGERATLSCRASQSIRDNLHWYQQKPGQSPRLLIYYASQSISGIPARFSGSGSGTDFTLTISSLEPEDFAVYFCQQFNSWPLTFGQGTKVEIKR | – | – | – | 0.459 | 1.25 | 0.103 | 1.63 | 0.039 | 1.7 | 1.84 | 0.025 | 0.267 |
